The text below walks through data of PMC6384901, “Cyclic Peptide-Based Sirtuin Substrates” (Molecules, 2019).

Type in all cases: biochemical, human
Substrate in series [1]: CCCCCCCCCCCCCC(=O)NCCCC[C@@H]1NC(=O)[C@H](CCCNC(=N)N)NC(=O)[C@@H](NC(C)=O)CCCCNC(=O)CCCCCCC(=O)NCCCC[C@@H](C(=O)N[C@H](C(N)=O)[C@@H](C)O)NC1=O
The experiment in a line: HPLC-based sirtuin deacylation activity assay, SIRT2. The settings on record: other: substrate activity with SIRT2, 50 mM Hepes pH 8.0, 0.5 mM β-NAD+, His6-SIRT2 297 nM, 37 °C, 2 min, HPLC 214 nm, Michaelis-Menten fit. How it is done: (§1) The steady-state kinetic parameters (kcat and KM) for the SIRT1/2/3 substrate activities of the purified 5–8 were determined with a HPLC-based sirtuin deacylation activity assay and are recorded in Table 2 and Table 3. As judged by kcat/KM ratios, cyclic peptides 5–8 were all found to be excellent SIRT1 substrates, actually 5, 7, and 8 are all better SIRT1 substrates than the linear hexapeptide-based SIRT1 substrate 3 (depicted in Figure 2) reported in the current literature (kcat/KM = 800 M^−1 s^−1). Cyclic peptides 5–8 were also all found to be better SIRT3 substrates than the linear hexapeptide-based SIRT3 substrate 3 reported in the current literature (kcat/KM = 990 M^−1·s^−1).
(§2) The following materials were obtained from commercial sources for the in vitro sirtuin deacylation activity assay and the pronase digestion assay, and were used as received. Sigma-Aldrich China: the active human recombinant His6-SIRT1, Trizma, Hepes, β-NAD^+, a 1.0 M solution of MgCl2 (molecular-biology grade), the pronase from Streptomyces griseus; Cayman Chemical (Ann Arbor, MI, USA): the active human recombinant GST-SIRT1, the active human recombinant His6-SIRT2, the active human recombinant His6-SIRT3; TCI Shanghai: DL-dithiothreitol (DTT); Alfa Aesar China: NaCl, KCl.
(§3) A sirtuin deacylation assay solution contained the following: 50 mM Hepes (pH 8.0), 137 mM NaCl, 2.7 mM KCl, 1 mM MgCl2, 1 mM DTT, β-NAD^+ (~5.6 × KM: 0.5 mM for the SIRT1 and SIRT2 assays, 3.5 mM for the SIRT3 assay), one test compound (5, 6, 7, or 8) with varied concentrations including 0, and a sirtuin (His6-SIRT1 or GST-SIRT1, 243 nM; His6-SIRT2, 297 nM; or His6-SIRT3, 739 nM). An enzymatic reaction was initiated by the addition of a sirtuin at 37 °C and was incubated at 37 °C for 5 min (for the SIRT1 assay) or 2 min (for the SIRT2 and SIRT3 assays) until quenched with the following stop solution: 100 mM HCl and 0.16 M acetic acid. The quenched assay solutions were directly injected into a C18 column (0.46 × 25 cm, 5 μm), and the column was eluted with a gradient of ddH2O containing 0.05% (v/v) TFA and acetonitrile containing 0.05% (v/v) TFA at 1 mL/min and was monitored at 214 nm. Turnover of the limiting substrate was kept at <10%. Stock solutions of the test compounds were all prepared in ddH2O. The integrated product and substrate HPLC peak areas were then used to determine the initial velocities for the sirtuin-catalyzed deacylation reaction at different concentrations of a test compound (5, 6, 7, or 8). The initial velocity-concentration data were analyzed with KaleidaGraph® (Synergy Software, Reading, PA, USA) and the data were fitted to the Michaelis-Menten equation to obtain the kinetic parameters kcat and KM, as recorded in Table 2 and Table 3.

Substrate in series [2]: CSCC[C@H](NC(=O)[C@@H]1CCCCNC(=O)CCC(=O)NCCCC[C@H](NC(C)=O)C(=O)N[C@@H](CCCCN)C(=O)N[C@@H](CCCCNC(C)=O)C(=O)N1)C(N)=O
The description is as above. The settings on record: other: substrate activity with SIRT2, 50 mM Hepes pH 8.0, 0.5 mM β-NAD+, His6-SIRT2 297 nM, 37 °C, 2 min, HPLC 214 nm, Michaelis-Menten fit. How it is done: as §1, §2, §3

Substrate in series [3]: CSCC[C@H](NC(=O)[C@@H]1CCCCNC(=O)CNC(=O)CCCCCCC(=O)NCC(=O)NCCCC[C@H](NC(C)=O)C(=O)N[C@@H](CCCCN)C(=O)N[C@@H](CCCCNC(C)=O)C(=O)N1)C(N)=O
The description is as above. The settings on record: other: substrate activity with SIRT2, 50 mM Hepes pH 8.0, 0.5 mM β-NAD+, His6-SIRT2 297 nM, 37 °C, 2 min, HPLC 214 nm, Michaelis-Menten fit. How it is done:
as §1, §2, §3

Substrate in series [4]: CCCCCCCCCCCCCC(=O)NCCCC[C@@H]1NC(=O)[C@H](CCCNC(=N)N)NC(=O)[C@@H](NC(C)=O)CCCCNC(=O)CCCCCCC(=O)NCCCC[C@@H](C(=O)N[C@H](C(N)=O)[C@@H](C)O)NC1=O
The experiment in a line: HPLC-based sirtuin deacylation activity assay, SIRT3. The following applies: other: substrate activity with SIRT3, 50 mM Hepes pH 8.0, 3.5 mM β-NAD+, His6-SIRT3 739 nM, 37 °C, 2 min, HPLC 214 nm, Michaelis-Menten fit. How it is done:
as §1, §2, §3

Substrate in series [5]: CSCC[C@H](NC(=O)[C@@H]1CCCCNC(=O)CCC(=O)NCCCC[C@H](NC(C)=O)C(=O)N[C@@H](CCCCN)C(=O)N[C@@H](CCCCNC(C)=O)C(=O)N1)C(N)=O
The series is described as above. The following applies: other: substrate activity with SIRT3, 50 mM Hepes pH 8.0, 3.5 mM β-NAD+, His6-SIRT3 739 nM, 37 °C, 2 min, HPLC 214 nm, Michaelis-Menten fit. The procedure: as §1, §2, §3

Substrate in series [6]: CSCC[C@H](NC(=O)[C@@H]1CCCCNC(=O)CNC(=O)CCCCCCC(=O)NCC(=O)NCCCC[C@H](NC(C)=O)C(=O)N[C@@H](CCCCN)C(=O)N[C@@H](CCCCNC(C)=O)C(=O)N1)C(N)=O
The description is as above. The following applies: other: substrate activity with SIRT3, 50 mM Hepes pH 8.0, 3.5 mM β-NAD+, His6-SIRT3 739 nM, 37 °C, 2 min, HPLC 214 nm, Michaelis-Menten fit. The procedure: as §1, §2, §3

B1: human recombinant His6-SIRT2 (Homo sapiens) (protein)
chain: MAEPDPSHPLETQAGKVQEAQDSDSDSEGGAAGGEADMDFLRNLFSQTLSLGSQKERLLDELTLEGVARYMQSERCRRVICLVGAGISTSAGIPDFRSPSTGLYDNLEKYHLPYPEAIFEISYFKKHPEPFFALAKELYPGQFKPTICHYFMRLLKDKGLLLRCYTQNIDTLERIAGLEQEDLVEAHGTFYTSHCVSASCRHEYPLSWMKEKIFSEVTPKCEDCQSLVKPDIVFFGESLPARFFSCMQSDFLKVDLLLVMGTSLQVQPFASLISKAPLSTPRLLINKEKAGQSDPFLGMIMGLGGGMDFDSKKAYRDVAWLGECDQGCLALAELLGWKKELEDLVRREHASIDAQSGAGVPNPSTSASPKKSPPPAKDEARTTEREKPQ
notes: His6; purchased Cayman Chemical
The term Km denotes the substrate concentration at which the rate is half of its maximum. In the case of B1, in series [1], the Km came out at 37.6 ± 14.4 µM; the kcat is 90.9 ± 2.62 10^−3, s^−1; the kcat/Km entry is “(2.6 ± 0.93) × 10^3 M^−1·s^−1”. In series [2], the Km was found to be 49.7 ± 7.78 µM; the kcat is listed as 138.9 ± 26.7 10^−3, s^−1; the kcat/Km result is “(2.79 ± 0.1) × 10^3 M^−1·s^−1”. In series [3], the Michaelis constant (Km) was 11.6 ± 2.2 µM; the kcat is recorded as 36.0 ± 4.9 10^−3, s^−1; the kcat/Km entry is “(3.2 ± 1.0) × 10^3 M^−1·s^−1”.

B2: human recombinant His6-SIRT3 (Homo sapiens) (protein)
chain: MAFWGWRAAAALRLWGRVVERVEAGGGVGPFQACGCRLVLGGRDDVSAGLRGSHGARGEPLDPARPLQRPPRPEVPRAFRRQPRAAAPSFFFSSIKGGRRSISFSVGASSVVGSGGSSDKGKLSLQDVAELIRARACQRVVVMVGAGISTPSGIPDFRSPGSGLYSNLQQYDLPYPEAIFELPFFFHNPKPFFTLAKELYPGNYKPNVTHYFLRLLHDKGLLLRLYTQNIDGLERVSGIPASKLVEAHGTFASATCTVCQRPFPGEDIRADVMADRVPRCPVCTGVVKPDIVFFGEPLPQRFLLHVVDFPMADLLLILGTSLEVEPFASLTEAVRSSVPRLLINRDLVGPLAWHPRSRDVAQLGDVVHGVESLVELLGWTEEMRDLVQRETGKLDGPDK
notes: as for B1
Regarding B2, in series [4], the Km is 4.2 ± 0.38 µM; the kcat is given as 60.0 ± 2.8 10^−3, s^−1; the kcat/Km result is listed as “(14.3 ± 0.66) × 10^3 M^−1·s^−1”. For the same protein, in series [5], the Michaelis constant (Km) was found to be 34.9 ± 4.04 µM; the kcat is reported as 155.3 ± 16.6 10^−3, s^−1; the kcat/Km entry is listed as “(4.51 ± 1.0) × 10^3 M^−1·s^−1”. In addition, in series [6], the Km was determined as 4.5 ± 0.9 µM; the kcat is recorded as 15.8 ± 1.4 10^−3, s^−1; the kcat/Km result is given as “(3.6 ± 0.4) × 10^3 M^−1·s^−1”.
